Data: publication PMC3319252

What was measured:
[1] = biological target: transmembrane (TM) domain of the human nicotinic acetylcholine receptor α4 subunit (human); experiment: SEC-MALS
[2] = biological target: transmembrane (TM) domain of the human nicotinic acetylcholine receptor β2 subunit (human); experiment: SEC-MALS

A stoichiometry N [1] of 5 was found for “transmembrane (TM) domain of the human nicotinic acetylcholine receptor α4 subunit (domain or fragment)” in this work.
A stoichiometry N [2] of 5 was found for “transmembrane (TM) domain of the human nicotinic acetylcholine receptor β2 subunit (domain or fragment)” in this work.
